{"source": "paper PMC11969024", "about": "“Development of chemokine network inhibitors using combinatorial saturation mutagenesis” (Communications Biology, 2025)", "key": {"THP1 cells": {"tested_on": "THP1 cells", "test": "Chemokine dose-response, THP1 cell migration", "type": "cell-based, human", "conditions": "mean of biological replicates (2-7); for Mean pEC80: 3-parameter log-logistic fit, maximum fixed at 100%", "experimental": "Cell lines were confirmed mycoplasma free by monthly testing using a MycoAlert^TM kit (LT07-118, Lonza) following the manufacturer’s instructions. THP1 cells: THP1 cells (ECACC 88081201, a human monocyte leukemia cell line[51]) were obtained from ECACC and were cultured in T175 flasks at 0.3-1 × 10^6 cells/mL in Roswell Park Memorial Institute (RPMI) 1640 medium (R0883, Sigma) with 10% FBS (F9665, Sigma) and 5mM L-glutamine (G7513, Sigma), 37 °C, 5% CO2. J:CXCR1 cells: The J:CXCR1 cell line was cultured in the same manner as THP1 cells at 0.15-1 × 10^6 cells per mL[37]. Activated T-cells: T-cells were isolated, activated and expanded as follows. Briefly, density gradient centrifugation using Lymphoprep^TM density gradient medium (07801, […] Technologies) and a SepMate^TM isolation tube (85450, […] Technologies) was used to isolate peripheral blood mononuclear cells from human leukocyte cones. Two rounds of purification using a human CD8 + T-cell isolation kit (480011, BioLegend) were used to isolate CD8 + T-cells from peripheral blood mononuclear cells. Activation of CD8 + T-cells was performed in ImmunoCult^TM-XF T-cell expansion medium (10982, […] Technologies) with an anti-CD3/anti-CD28 T-cell activator at 25 μl/ml (10991, […] Technologies), supplemented with 10 ng/ml recombinant human IL-2 (200-02, PeproTech) with 1% penicillin/streptomycin. T-cells were passaged every 2–3 days in TexMACS medium (130-097-196, Miltenyi Biotec), supplemented with 10 ng/ml human IL-2 (200-05-250, Peprotech) and incubated at 37 °C in 5% CO2. CD8 + T-cells were frozen at day 10-13 after initial activation, at 20×10^6 cell/ml in TexMACS medium supplemented with 10% DMSO (D2650, Sigma) in liquid nitrogen. Activated CD8^+ T-cells were recovered in TexMACs medium at 0.3 × 10^6 cell/ml and incubated at 37 °C in 5% CO2, 24 h prior to use. For buffy coat experiments a mixture of primary human monocytes, granulocytes and lymphocytes was isolated from human buffy coat. Briefly, RBCs were sedimented in HetaSep (07806, […] Technologies) with 1 mL of HetaSep per 5 mL of blood for 15 min at 37 °C. The buffy coat layer was collected from the top and washed in 50 ml MACS buffer (PBS (P4417, Sigma), 0.5% BSA (A7030, Sigma), 0.075% EDTA (E5134, Sigma), pH 7.2), by centrifugation at 2000 g for 10 min at room temperature. The pellet was resuspended in 10 mL of 1x RBC lysis solution (130-094-183, Miltenyi Biotec) and lysed for 10 min at room temperature. The cells were then washed in MACS buffer twice as above. The final pellet was resuspended in 1 mL of MACS buffer per 5 mL of initial blood volume and counted using cell size FSC-H/SSC-H parameters with gate settings previously defined by immunostaining (see below). The leukocytes were then resuspended in assay buffer for cell migration and used within 30 min of isolation.\nCell counts were determined using an ATTUNE NxT Flow Cytometer with Cytkick autosampler (ThermoFisher), based on cell size parameters FSC-H/SSC-H, with previously defined gate settings. FSC-H/SSC-H gate settings for primary white blood cells from buffy coats were determined using flow cytometry to establish the granulocyte, monocyte and lymphocyte populations (Supplementary Fig. 13). Briefly, cells were labelled with anti-CD3 (Miltenyi Biotec, 130-113-135) to identify the T cell population, anti-CD14 (Miltenyi Biotec, 130-110-578) to identify the monocyte population, and with anti-CD16 (Miltenyi Biotec, 130-113-951) to identify the granulocyte population. Negative control cells were labelled with anti-human IgG1 (Miltenyi Biotec, 130-113-434). All antibodies were allophycocyanin (APC) conjugated. 100,000 white blood cells were added to Eppendorf tubes and centrifuged at 300 g for 3 min. The supernatant was discarded, and the cells resuspended in 98 µL of MACS buffer (1× PBS, 2 mM EDTA and 0.5% BSA, sterile filtered). 2 µl of antibody was added to the cells. […]"}, "activated T-cells (ATC)": {"tested_on": "activated T-cells (ATC)", "test": "Chemokine dose-response, activated T-cell (ATC) migration", "type": "cell-based, human", "conditions": "mean of biological replicates (3-6)", "experimental": "Cell lines were confirmed mycoplasma free by monthly testing using a MycoAlert^TM kit (LT07-118, Lonza) following the manufacturer’s instructions. THP1 cells: THP1 cells (ECACC 88081201, a human monocyte leukemia cell line[51]) were obtained from ECACC and were cultured in T175 flasks at 0.3-1 × 10^6 cells/mL in Roswell Park Memorial Institute (RPMI) 1640 medium (R0883, Sigma) with 10% FBS (F9665, Sigma) and 5mM L-glutamine (G7513, Sigma), 37 °C, 5% CO2. J:CXCR1 cells: The J:CXCR1 cell line was cultured in the same manner as THP1 cells at 0.15-1 × 10^6 cells per mL[37]. Activated T-cells: T-cells were isolated, activated and expanded as follows. […] The final pellet was resuspended in 1 mL of MACS buffer per 5 mL of initial blood volume and counted using cell size FSC-H/SSC-H parameters with gate settings previously defined by immunostaining (see below). […]\nCell counts were determined using an ATTUNE NxT Flow Cytometer with Cytkick autosampler (ThermoFisher), based on cell size parameters FSC-H/SSC-H, with previously defined gate settings. FSC-H/SSC-H gate settings for primary white blood cells from buffy coats were determined using flow cytometry to establish the granulocyte, monocyte and lymphocyte populations (Supplementary Fig. 13). […]"}}, "data": [{"molecule": "CCL8: human chemokine, Peprotech 300-15 (protein, UniProt P80075 24-99, looked up) C-C motif chemokine 8: QPDSVSIPITCCFNVINRKIPIQRLESYTRITNIQCPKEAVIFKTKRGKEVCADPKERWVRDSMKHLDQIFQNLKP", "values": [{"measurement": "Mean pEC80", "setting": "THP1 cells", "value": "7.84 [M]"}, {"measurement": "Mean pEC50", "setting": "THP1 cells", "value": "8.19 [M]"}]}, {"molecule": "CCL14: human chemokine, Peprotech 300-38B (protein, UniProt Q16627 20-93, looked up) C-C motif chemokine 14: TKTESSSRGPYHPSECCFTYTTYKIPRQRIMDYYETNSQCSKPGIVFITKRGHSVCTNPSDKWVQDYIKDMKEN", "values": [{"measurement": "Mean pEC80", "setting": "THP1 cells", "value": "9.23 [M]"}, {"measurement": "Mean pEC50", "setting": "THP1 cells", "value": "9.61 [M]"}]}, {"molecule": "CCL21: human chemokine, Peprotech 300-35A (protein) SDGGAQDCCLKYSQRKIPAKVVRSYRKQEPSLGCSIPAILFLPRKRSQAELCADPKELWVQQLMQHLDKTPSPQKPAQGCRKDRGASKTGKKGKGSKGCKRTERSQTPKGP", "values": [{"measurement": "Mean pEC50", "setting": "activated T-cells (ATC)", "value": "7.98 [M]"}, {"measurement": "Mean pEC80", "setting": "activated T-cells (ATC)", "value": "7.42 [M]"}]}, {"molecule": "CCL23: human chemokine, Biolegend 587002 (protein, UniProt P55773 22-120, looked up) C-C motif chemokine 23: RVTKDAETEFMMSKLPLENPVLLDRFHATSADCCISYTPRSIPCSLLESYFETNSECSKPGVIFLTKKGRRFCANPSDKQVQVCMRMLKLDTRIKTRKN", "values": [{"measurement": "Mean pEC80", "setting": "THP1 cells", "value": "8.66 [M]"}, {"measurement": "Mean pEC50", "setting": "THP1 cells", "value": "8.97 [M]"}]}]}
